Values quoted from earlier work as cited in publication PMC9326902.

Molecular target: Hemoglobin (Homo sapiens) (UniProt P69905)
Chain of UniProt P69905 (P69905 2-142, chain 1 of 2): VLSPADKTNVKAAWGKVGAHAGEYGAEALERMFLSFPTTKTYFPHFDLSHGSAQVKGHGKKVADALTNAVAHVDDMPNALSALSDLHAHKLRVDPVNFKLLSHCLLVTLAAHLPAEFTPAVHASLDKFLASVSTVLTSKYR
Chain of UniProt P69905 (P68871 2-147, chain 2 of 2, further chain): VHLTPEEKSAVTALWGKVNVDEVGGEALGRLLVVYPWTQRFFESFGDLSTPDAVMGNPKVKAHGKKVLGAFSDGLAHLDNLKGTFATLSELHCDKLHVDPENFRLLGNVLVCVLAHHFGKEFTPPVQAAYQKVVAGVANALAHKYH

Substance: IsdH N2 (from UniProt Q2FXJ2)
- Kd: 7.5 µM
